The results in this text go back to publication PMC3987144 (The Journal of Cell Biology, 2014).

B3: His-SNAP25 (natural protein)
chain: MPADPSEEVAPQVPKTELEELQINAQGVADESLESTRRMLALCEESKEAGIRTLVALDDQGEQLDRIEEGMDQINADMREAEKNLSGMEKCCGICVLPCNKSQSFKEDDGTWKGNDDGKVVNNQPQRVMDDRNGMMAQAGYIGRITNDAREDEMEENMGQVNTMIGNLRNMALDMGSELENQNRQIDRINRKGESNEARIAVANQRAHQLLK

A value given as a limit tells only on which side of the number the result lay.

Assay [1] addresses Syx1A (Syntaxin 1A), endogenous (Drosophila melanogaster (endogenous in adult fly heads)) (UniProt Q24547). Kind of assay: co-IP.
The target in the assay “His-SNAP25” is B3. The assay can be described thus: pull-down.
The target in assay [2] is GST-Syx1A (Syntaxin 1A, 1-267 aa) (Drosophila melanogaster, UniProt Q24547 1-267). Kind of assay: pull-down.
The target of assay [3] is V100 (neuronal v-ATPase V0 subunit a1), endogenous (Drosophila melanogaster (endogenous in adult fly heads)) (UniProt Q8IML5). The assay can be described thus: co-IP.
Assay [4] addresses GST-open Syx1A (Syx1A L168A/E169A mutant, 1-267 aa) (Drosophila melanogaster, UniProt Q24547 1-267, L168A | E169A). The assay can be described thus: pull-down.

Sequence of Syx1A (Syntaxin 1A), endogenous (Drosophila melanogaster (endogenous in adult fly heads)) (Q24547 whole entry): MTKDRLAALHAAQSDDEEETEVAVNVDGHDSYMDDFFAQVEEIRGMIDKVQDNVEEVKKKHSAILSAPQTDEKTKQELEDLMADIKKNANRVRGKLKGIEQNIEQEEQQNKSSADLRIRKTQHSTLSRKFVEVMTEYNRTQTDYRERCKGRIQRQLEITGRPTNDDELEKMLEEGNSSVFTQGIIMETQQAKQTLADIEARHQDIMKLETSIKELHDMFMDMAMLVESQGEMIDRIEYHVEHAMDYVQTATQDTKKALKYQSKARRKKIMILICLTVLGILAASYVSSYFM

In assay [1], “V100 (neuronal v-ATPase V0 subunit a1), endogenous (from UniProt Q8IML5 1-833) (natural protein)” displayed a percent of V100 in a complex with Syx1A of less than 50%.

B1: GST-Syx1A-H3 (Syx1A SNARE domain, 200-267 aa) (domain or fragment)
chain: ARHQDIMKLETSIKELHDMFMDMAMLVESQGEMIDRIEYHVEHAMDYVQTATQDTKKALKYQSKARRK
B1: in the assay with His-SNAP25, the binding result is reported as “binds”.

B2: His-n-Syb (neuronal Synaptobrevin, amino acids 1-104) (domain or fragment)
chain: MADAAPAGDAPPNAGAPAGEGGDGEIVGGPHNPQQIAAQKRLQQTQAQVDEVVDIMRTNVEKVLERDSKLSELDDRADALQQGASQFEQQAGKLKRKFWLQNLK
Consider B2, for which, in assay [2], the binding result is “binds”.
As to B3, the percent of total input in complex with V100 (% of total input) in assay [3] was 1. The binding result in assay [4] and in assay [2] was “binds” in each case.
